Columns and labels:
[1] = target: cyclic peptide CP9; test: SPR; settings: both partners purified
[2] = target: cyclic peptide CP10; test: SPR; settings: both partners purified

B1: hemagglutinin (HA) ectodomain of A/New Caledonia/20/1999 (H1N1) (domain or fragment)
chain: not shown
modifications: biotin on the BirA site
koff [1]: 0.351 s⁻¹
kon [1]: 108000 M⁻¹ s⁻¹
koff [2]: 0.378 s⁻¹
kon [2]: 50300 M⁻¹ s⁻¹

— paper PMC12714728 (npj Viruses, 2025)
